Measurements as given in patent US20230151111A1 (AKESO BIOPHARMA, published 2023).

Key:
[1] = target: T1, PD-1 on 293T-PD1 cell surface (human, UniProt Q15116 25-288); assay: flow cytometry, 293T-PD1 cells
T1 construct: whole, on cells
Method: (§1) 500 μL of PBSA was added, and the mixture was centrifuged at 5600 rpm for 5 min to remove the supernatant. […] The system was mixed gently and uniformly, and then was incubated on ice for 1 h. Then 500 μL of PBSA was added, and the mixture was centrifuged at 5600 rpm for 5 min to remove the supernatant. […] 500 μL of PBSA was added, and the mixture was centrifuged at 5600 rpm for 5 min to remove the supernatant. At last, 200 μL of PBSA was added to resuspend cell precipitates, and the mixture was transferred to a flow tube for FACSCalibur detection.

[2] = target: T2, CD73 on cell membrane surface (MDA-MB-231, U87-MG) (human, UniProt P21589 27-549); assay: flow cytometry, MDA-MB-231 cells
T2 construct: whole, on cells; also called NT5E
T2 sequence (looked up): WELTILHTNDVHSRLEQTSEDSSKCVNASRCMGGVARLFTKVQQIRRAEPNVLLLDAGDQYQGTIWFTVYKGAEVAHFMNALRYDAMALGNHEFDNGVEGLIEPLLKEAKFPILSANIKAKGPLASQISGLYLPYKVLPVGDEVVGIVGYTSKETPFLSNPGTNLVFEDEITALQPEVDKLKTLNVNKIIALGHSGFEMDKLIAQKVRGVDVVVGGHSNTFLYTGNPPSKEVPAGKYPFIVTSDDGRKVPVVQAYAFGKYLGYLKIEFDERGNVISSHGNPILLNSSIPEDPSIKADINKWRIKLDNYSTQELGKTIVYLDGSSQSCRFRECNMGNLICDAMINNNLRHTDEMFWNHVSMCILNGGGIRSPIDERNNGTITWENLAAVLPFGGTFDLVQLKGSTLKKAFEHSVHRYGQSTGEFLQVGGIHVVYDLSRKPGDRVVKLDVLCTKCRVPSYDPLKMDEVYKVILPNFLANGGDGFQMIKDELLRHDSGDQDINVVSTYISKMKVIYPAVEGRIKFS
Method: (§2) MDA-MB-231 cells in logarithmic phase were digested with conventional trypsin and transferred to a 1.5 mL centrifuge tube at 3×10⁵ cells/tube. 500 μL of PBSA was added, and the mixture was centrifuged at 5600 rpm for 5 min to remove the supernatant. […] The system was mixed gently and uniformly, and then was incubated on ice for 1 h. Then 500 μL of PBSA was added, and the mixture was centrifuged at 5600 rpm for 5 min to remove the supernatant. […] 500 μL of PBSA was added, and the mixture was centrifuged at 5600 rpm for 5 min to remove the supernatant. At last, 200 μL of PBSA was added to resuspend cell precipitates, and the mixture was transferred to a flow tube for FACSCalibur detection.

[3] = target: T1, PD-1 on 293T-PD1 cell surface; assay: flow cytometry, 293T-PD1 cells; antibody 0.05 nM
Method: as §1

[4] = target: T1, PD-1 on 293T-PD1 cell surface; assay: flow cytometry, 293T-PD1 cells; antibody 0.14 nM
Method: as §1

[5] = target: T1, PD-1 on 293T-PD1 cell surface; assay: flow cytometry, 293T-PD1 cells; antibody 0.41 nM
Method: as §1

[6] = target: T1, PD-1 on 293T-PD1 cell surface; assay: flow cytometry, 293T-PD1 cells; antibody 1.23 nM
Method: as §1

[7] = target: T1, PD-1 on 293T-PD1 cell surface; assay: flow cytometry, 293T-PD1 cells; antibody 3.70 nM
Method: as §1

[8] = target: T1, PD-1 on 293T-PD1 cell surface; assay: flow cytometry, 293T-PD1 cells; antibody 11.11 nM
Method: as §1

[9] = target: T1, PD-1 on 293T-PD1 cell surface; assay: flow cytometry, 293T-PD1 cells; antibody 100.00 nM
Method: as §1

[10] = target: T2, CD73 on cell membrane surface …; assay: flow cytometry, MDA-MB-231 cells; antibody 0.41 nM
Method: as §2

[11] = target: T2, CD73 on cell membrane surface …; assay: flow cytometry, MDA-MB-231 cells; antibody 1.23 nM
Method: as §2

[12] = target: T2, CD73 on cell membrane surface …; assay: flow cytometry, MDA-MB-231 cells; antibody 11.11 nM
Method: as §2

[13] = target: T2, CD73 on cell membrane surface …; assay: flow cytometry, MDA-MB-231 cells; antibody 33.33 nM
Method: as §2

human PD-1-mFc-biotin = human PD-1-mFc-biotin (human, UniProt Q15116 25-170, limits assumed, biotin label, site not stated); assay: competitive ELISA, blocking of PD-1-mFc-biotin binding to coated PD-L1-mFc
Method: After incubation, the microplate was blocked with a PBS solution containing 1% BSA at 37° C. for 2 h. After blocking, the plate was washed three times and dried. The antibody was serially diluted to 7 concentrations in a gradient ratio of 1:3 on a dilution plate with 10 μg/mL as the starting concentration, and a blank control was set. […] Then the mixture after reaction was added to the coated microplate, and the microplate was incubated for at 37° C. for 30 min. After incubation, the plate was washed three times with PBST and dried. SA-HRP (KPL, 14-30-00) working solution was added, and the plate was incubated at 37° C. for 30 min. After incubation, the plate was washed four times and patted dry. Then TMB (Neogen, 308177) was added in the dark for chromogenesis for 5 min, and a stop solution was added to terminate chromogenic reaction. Then the microplate was put into a microplate reader immediately, and the OD value of each well in the microplate was read at 450 nm. The data were analyzed and processed by SoftMax Pro 6.2.1.

T1 sequence (Q15116 25-288): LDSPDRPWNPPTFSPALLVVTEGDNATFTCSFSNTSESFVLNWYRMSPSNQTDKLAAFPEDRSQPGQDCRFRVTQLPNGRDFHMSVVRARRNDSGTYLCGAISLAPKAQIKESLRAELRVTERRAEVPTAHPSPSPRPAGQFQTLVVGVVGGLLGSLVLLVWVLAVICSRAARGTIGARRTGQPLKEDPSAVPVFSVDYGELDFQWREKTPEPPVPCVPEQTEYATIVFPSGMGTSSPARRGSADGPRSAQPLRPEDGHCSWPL
Sequence of human PD-1-mFc-biotin (Q15116 other isoform, or with tags, fused parts or gaps limits assumed): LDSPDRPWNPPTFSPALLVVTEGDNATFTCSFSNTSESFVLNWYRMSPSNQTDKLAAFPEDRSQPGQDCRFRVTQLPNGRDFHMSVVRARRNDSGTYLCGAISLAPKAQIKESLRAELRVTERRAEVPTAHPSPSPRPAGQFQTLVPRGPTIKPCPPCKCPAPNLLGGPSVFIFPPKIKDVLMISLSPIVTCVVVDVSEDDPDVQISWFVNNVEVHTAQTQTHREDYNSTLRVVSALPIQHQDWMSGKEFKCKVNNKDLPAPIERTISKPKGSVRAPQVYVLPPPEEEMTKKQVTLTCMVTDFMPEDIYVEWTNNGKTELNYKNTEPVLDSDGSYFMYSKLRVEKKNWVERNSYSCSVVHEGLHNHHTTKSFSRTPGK

Binder	EC50 [1] [nM]	EC50 [2] [nM]	FACS signal [3]	FACS signal [4]	FACS signal [5]	FACS signal [6]	FACS signal [7]	FACS signal [8]	FACS signal [9]	FACS signal [10]	FACS signal [11]	FACS signal [12]	FACS signal [13]	EC50 (human PD-1-mFc-biotin) [nM]
P1D7V01 (bispecific antibody, human IgG1, kappa, Morrison form IgG-scFv) heavy: not shown light: DIQMTQSPSSMSASVGDRVTFTCRASQDINTYLSWFQQKPGKSPKTLIYRANRLVSGVPSRFSGSGSGQDYTLTISSLQPEDMATYYCLQYDEFPLTFGAGTKLELKRTVAAPSVFIFPPSDEQLKSGTASVVCLLNNFYPREAKVQWKVDNALQSGNSQESVTEQDSKDSTYSLSSTLTLSKADYEKHKVYACEVTHQGLSSPVTKSFNRGEC	1	1.38	26.6	58.6	151	307	531	578	531	76.8	272	561	526	1.11
P1D7V03 (bispecific antibody, human IgG1, kappa, Morrison form IgG-scFv) heavy: not shown light: DIQMTQSPSSMSASVGDRVTFTCRASQDINTYLSWFQQKPGKSPKTLIYRANRLVSGVPSRFSGSGSGQDYTLTISSLQPEDMATYYCLQYDEFPLTFGAGTKLELKRTVAAPSVFIFPPSDEQLKSGTASVVCLLNNFYPREAKVQWKVDNALQSGNSQESVTEQDSKDSTYSLSSTLTLSKADYEKHKVYACEVTHQGLSSPVTKSFNRGEC	1.38	2.01	24.1	49.2	118	289	385	459	343	106	233	525	576	1.15
